The labels stand for the following.
B1: UBQLN4^444–601 (domain or fragment, human)
chain: WLPVFLQQMQNPESLSILTNPRAMQALLQIQQGLQTLQTEAPGLVPSLGSFGISRTPAPSAGSNAGSTPEAPTSSPATPATSSPTGASSAQQQLMQQMIQLLAGSGNSQVQTPEVRFQQQLEQLNSMGFINREANLQALIATGGDINAAIERLLGSQLS
notes: one tryptophan added at the N-terminus with the 6xHis tag (His6-W-); also called C-terminal UBQLN4 construct; source: E. coli Rosetta (DE3), purified (Ni-NTA, dialysis); not shown: His6, N-terminal, kept
B2: UBQLN2^430–624 (domain or fragment, human)
chain: WLPAFLQQMQNPDTLSAMSNPRAMQALMQIQQGLQTLATEAPGLIPSFTPGVGVGVLGTAIGPVGPVTPIGPIGPIVPFTPIGPIGPIGPTGPAAPPGSTGSGGPTGPTVSSAAPSETTSPTSESGPNQQFIQQMVQALAGANAPQLPNPEVRFQQQLEQLNAMGFLNREANLQALIATGGDINAAIERLLGSQPS
notes: one tryptophan added at the N-terminus with the 6xHis tag (His6-W-); ubiquilin-2 (UBQLN2, PLIC-2), residues 430-624, from the fourth STI1 motif to the end of the protein, includes the PXX domain and the UBA domain; Plasmid pET3a-His6-W-UBQLN2^430–624 bought from Genscript; also called His6-W-UBQLN2^430–624; C-terminal UBQLN2 construct; source: E. coli Rosetta (DE3), purified (Ni-NTA, flow-through …)
B3: UBQLN1^438–589 (domain or fragment, human)
chain: WLPTFLQQMQNPDTLSAMSNPRAMQALLQIQQGLQTLATEAPGLIPGFTPGLGALGSTGGSSGTNGSNATPSENTSPTAGTTEPGHQQFIQQMLQALAGVNPQLQNPEVRFQQQLEQLSAMGFLNREANLQALIATGGDINAAIERLLGSQPS
notes: one tryptophan added at the N-terminus with the 6xHis tag (His6-W-); also called C-terminal UBQLN1 construct; source: E. coli Rosetta (DE3), purified (Ni-NTA, dialysis); not shown: His6, N-terminal, kept
B4: UBA^581–624 (domain or fragment, human)
chain: WRFQQQLEQLNAMGFLNREANLQALIATGGDINAAIERLLGSQPS
notes: one tryptophan added at the N-terminus with the 6xHis tag (His6-W-); ubiquilin-2 (UBQLN2), UBA domain, residues 581-624; The methods on expression and purification name only the three longer constructs; also called His6-W-UBQLN2^581–624(UBA); isolated UBA domain from UBQLN2; source: recombinant, plasmid for bacterial expression (pET3a)

This data set deals with the molecule itself. Put plainly: ThioflavinT aggregation assay + transmission electron microscopy; 10 µM protein alone, 10 µM ThT, 0.1 M NaCl, 1 mM sodium azide, 20 mM Na phosphate pH 7.5, 37 °C, shaking at 200 rpm with Teflon beads; samples taken for negative-stain TEM at the end of the ThT assay; self-association into aggregates or fibrils.
Turning to B1, the binding result was “binds”.
As for B2, the entry is “binds”.
The result for B3 reads “binds”; that for B4, “binds”.
